Experimental data from the nanobody polyreactivity screen of Harvey et al. (2022).

Test: yeast display, Sf9 membrane polyspecificity reagent, FACS + sequencing; frameworks hold sequencing errors
Method in brief: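 Nanobodies from a synthetic yeast display library (Saccharomyces cerevisiae BJ5465), induced 36–48 hours with galactose, were stained 1 hour at 4 °C with 10% biotinylated, detergent-solubilized Sf9 membrane reagent, enriched on streptavidin microbeads, then FACS-sorted. Anti-HA (expression) and streptavidin (reagent binding) fluorescence set low and high (top ~1%) gates. Polyreactivity labels come from the gate of origin. Genes were colony-PCR amplified, MiSeq 2 × 250 sequenced and filtered by CDR length.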

Sequence	polyreactivity (PSR sort gate)
QVHVVESGGGLVQAGGSLRLSCAASGFTFAKYAMGWYRQAPGKERELVAVITSSGGRTYYADSVKGRFTISRDNAKNTVYLQMNSLKPEDTAVYYCNAGKYVYATSQYDYWGQGTQVTVSS	high polyreactivity
QVQLVESGGGLVQAGGSLRLSCAASGRIFGINAMGWYRQAPGKERELVAAIDSAGRTYYADSVKGRFTISRDNAKNTVYLQMNSLKPEDTAVYSCNKDHSLYEHNYWGQGTQVTVSS	low polyreactivity
QVQLVESGGGLVQAGGSLRLSCAASGSIFTPNGRGWYRPAPGKDSELVAAISQSGGSTFYADSVKGRFTMSRDNAKYTVYLQMNSLKPEDSAVYYCATEYYGPVYDLDYDYWGQGSQVTVSS	low polyreactivity
QVQLLESGGGLVQAGGSLRLSCAASGAIFFIYVMGWYRQAPGKERELVAAISGSGGPTYYADSVKVRFTISRDNAKNTVFLQMNRLKPEDTAVYYCAARGYRGRMGYWGQGTQVTVSS	low polyreactivity
QVQLVESGGGLVQAGGSLRLSCAASGRIFTSYAMGWYRQAPGKEREFVAAITKSGGSTYYADSVKGRFTISRDNAKNTVYLQMNSLKPEDTAVYYCAVEGWDVYQDPYLYDYWGQGTQVTVSS	low polyreactivity
QVQIVESGGGLVQAGGSLRLSCAASGRIIRDYDMGWYRQAPGKERELVAAITFRSGSTYYADSEKGRFTISRDNAKNTVYLLMNSLKPEDTAVYYCADANSILLFDSWGQGTQVTLSS	low polyreactivity
QVQLVESAGGLVQAGGSLRLSCAASGSTFAIKAMGWYRQAPGKERELVAAISSSGSTNYADSVKGRFTISRDNAKNTVYLQMNSLKQEDTAVYYCAADRVWGTPQAYVPSHFDYWGQGTQVTVSS	low polyreactivity
QVQLVESGGGLVQAGGSLRLSCAASGSIFWVYAMGWYRQAPGKERELVAVIDWSGDSTYYADSVKGRFTISRDNAKNTVYLQMNSLKPEDTAVYYCSAEVYVDYTGYSYFDYPYDYWGQGTQVTVSS	low polyreactivity
QGQLGESGGGLVQAGGSLRLTCAASGNIFFVYAMGWYRQAPGNEWELVAAITWGGGSTNYADSVKGRFTISRDNAKKTVYLQMNSLKPEDTAVYYCATDNRYVVDSYYWGQGTQVTVSS	high polyreactivity
QVQLVESGGGLVQAGGSLRLSCAASGFIFYSNDMGWYRQAPGKERELVAAITSSGGSTYYADSVKGRFTISRDNAKNTVYLQMNSLKPEDTAVYYCNADCTTFGLYSWGQGTQVTVSS	low polyreactivity
QVQLVESGGGLVQAGGSLRLSCAASGRTFWNYAKGWYRQAPGNERELVAVIRFSDGSTYYADSVKGRFTISRDNAKNTVYLQMNSLKPEDTAVYYCAAKGPRRWGSGFDYWGQGTQVTVSS	low polyreactivity
QVQLVESGGGLVQAGGSLRLSCAASGSTFGRNAMGWYRQAPGKERELVAAITASGGTTYYADSVKGRFTISRDNAKNTVYLQMNSLKPEDTAVYYCARAGHFSFKDDYWGQGTQVTVSS	low polyreactivity
QVHLVESAGGLVQAGGSLRLSCDASGRTFYPNAMGWYRQKHGQERELVAGIRSSGESTYYEDSVKGRFTISRDNAKTTVYLQMNSLKQEDTAVYYGIRDLTPSYDFWGQGSQVTVSS	low polyreactivity
QVQLVESGGGLVQAGGSLRISCAASGSIFPEYAMGWYRQAPGKERELVAAITTSGGSTYYADSVKGRFTISRDNAKNTVYLQMNSLKPEDTAVYYCAVEYLVYLDYTYDYWGQGTQVTVSS	low polyreactivity
QVQLVESGGGLVQAGGSLRLSCAASGSIFRPYAMGWYRQAPGKERELVAGITFIGGSTYYADSVKGRFTISRDNAKNTVYLQRNSLKPEDTAVYYCNADVAPGIFYGYDSWGQGTQVTVSS	low polyreactivity
QVQLVESGGGLVQAGGSLRLSCAACGRIFSYNAMGWYRQAPGKERELVAAIRWRGGSTYYADSVKGRFTISRDNAKNTVYLQMNRLKPEDTAVYYCNALRYYHYDYWGQGTQVTVSS	high polyreactivity
QVQLVEAGGGLVQAGGSLRLSCAASGSIFSHNAMGWYRQAPGKERELVAAISVSGGTTYYADSVKGRFTISRDNAKNTVYLQMNSLKPEDTAVYYCAAKRFQGVGYLGQGTQVTVSS	high polyreactivity
QVQLVESGGGLVQAGGSLRLSCAATGRTFGVNAMAWYRQAPGKESELVASIRWNGGSTYYADSVKGRFTISRDNAKNTVYLQMNSLKPEDTAVYYCNAVRRYRSREFDYWGQGSQVTVSS	low polyreactivity
QVQLVESGGGLVQAGGSLRLSCAASGSTFYPYAMGWYRQAPGKEREFVAAIRSSGTSTYYADSVKGRFTISRDNAKNTVYLQMNSLKPEDTEVYYGAARVRGDSVSRTKPASIGGGSWGQGTQVTVSS	high polyreactivity
QVQLVESGGGLVQAGGSLRLSCAASGFTIVTYAMGWYRQAPGKERELVAAISKSGGTTYYADSVKGRFTISRDNAKNTVYLQMNSLKPEDTAVYYCNKRWYIARPVDRYRYYYWGQGTQVTVSS	high polyreactivity
QVQLVESGGGLLQAGGSLRLSSAASGLTFAAYAMGWYRQAPGKEREFVAAITSSGGSTYYADSVKGRFTISRDNAKNSVYLQMNSLKPEDTAVYYCAAYYYDHYYWGQGTQVTVSS	high polyreactivity
QVQLVESGGGLFQAGGSLRLSCAASGSIFVRNAMGWYRKATGKERELVAGISATGGSTYYADSVKGRFTISRDNAKITVYFQMKSLKPEDTAVYYCAKKVSTRFARYRYDYWGQVTQVTVSS	high polyreactivity

Sequence	polyreactivity (PSR sort gate)
QVQLVESGGGLVQAGGSLRLSCAASGFTFFLNAMGWYRQAPGKERELVAAINRSGGSTYYADSVKGRFTISRDNAKNTVYLQMNSLKPEDTAVYYCATYSFWHYAYDYWGQGTQVTVSS	low polyreactivity
QVQLQESGGGQVLAGGSLRVSCAASGYIPYSRWMGWNRQAPGKEREFVAGIGYGSSTYYADSVKGRFTISRDNAKNTVYLQMNSLKPEDTAVYYCNASIFFRRNVTQVRMDYWGQGSQVTVSS	high polyreactivity
QVQLVESGGGLVQAGGSLRLSCAASGRTFGRYAMVWYRQAPGKEREFVASISRRGGTTYYADSVKGRFTISRDNAKNSVYLQMNSLKPEDTAVYYCNADRTVIYDYEYWGQGTQVTVSS	low polyreactivity
QVQLVESGGGLVQAGGSLRLSCAASGNIFTYYVMGWYRQAPGKQRELVAAISRRGGSTYYADSVKGRFIISRDNAKHTVYLQMNSLKPEDTAVYYCAKKYPRDMDYWGQGTQVTVSS	high polyreactivity
QVQLVESGGGLVQAGGSLRLSCAASGFTIYRYAMGWYRQAPGKERELVATIRRGGSTKYADSVKGRFTISRDNAKNTVYLQMNSLKPEDTAVYYCNARYYAAPDKYYYWGQGTQVTVSS	low polyreactivity
QVQLVESGGGLVQAGGSLRLSCAASGLIIVYNAIGWYRHAPGKERELVAGITSGGSTNYADSEKGRFTISRDNAKKTVYLQMNSLKPEDTAVYYCNAPVTGAGTYPPYDSWGQGTQVTVSS	high polyreactivity
QVQLVESGGGLVQAGGSLRLSCAASGYIFYIYAKGWNRQAPGKERELVAAISYSDGTTYYADSVKGRFTISRDNAKNTVYLQMNSLKAEDTAVYYCAADLWVGLVSLWDGYVEYDYWGQGTQVTVSS	low polyreactivity
QVQLVESGGGLVQAGGTLRLSCAASGFTFSSYTVGWYRQAPRKERELVASISSGGSTNYADSVKGRFTISRDNAKNTVYLQMNSLIPEDTAVFYCAAGTPCISFYDVCSGYDYWGQGTQVTVSS	low polyreactivity
QVQLVESGGGLVQAGGSLRLSCAASGSIFVYNAMGWYRHAPGTERELVAAISRRGGSTYYADSVKGRFTISRDNAKNTVYLQMNSLKPEDTAVYYCAAFASATRYDYWGQGTQVTVSS	high polyreactivity
QVQLEESGGGLVQAGGSLRLSCAASGIIFTVYAMGWYRQATGTERELVAAITSSGGRTYYADSVKGRFTISRDNAKNTVYLQMNSLKPEDTAVYYCAARLPGYVRKYDYWGQGTQVTVSS	high polyreactivity
QVQLVESGGGLVQAGGSLRLSCAASGSTFAYYAMGWYRKAPGKERELVAAISSGGSTYYADSVKGRFTISRDNAKNTVYLQMNSLKPEDTAVYYCNKLWVGKFKRYEFGYWGQGTQVTVSS	low polyreactivity
QVQLVESGGGLVQAGGSLRLSCAASGSIFDVYTMGWYRQAPGKERELVAAISWSGGSTFYADSVKGRFTISRDNAKNTVYLQMNSLKPEDTAVYYCAARSYWRQYGRYGSWGQGTQVTVSS	high polyreactivity
QVQLVESGGGLVQAGGSLRLSCAASGRTFFVNAMGWYRPAPGKERELVAAITWSGGSTYYADSVKGRFTISRDNAKNTVYLQMNSLKAEDTAVYYCNADYQWYLGGYDYWGQGTQVTVSS	high polyreactivity
QVQLVESGGGLVQAGGSLRLSCAASGRTFYRNAMGWYRQATGKERELVAAISRGDSTYYADSVKGRFTISRDNAKKTVYLQMNSLKPEDTAVYYCAKRARRIGDVNMGSWGQGTQVTVSS	low polyreactivity
QVQLVESGGGLVQAGGSLRLSCAASGSIFYKYAMGWYRQAPGKERELVASITSGGITNYADSVKGRFTISRDNAKNTVFLQMNSLKPEDTAVYYCNAANPYRRVGSFTYKYDYWGQGTQVTVSS	low polyreactivity
QVQLVESGGGLVQAGGSLRLSCAASGSIFVRYAMGWYRQAPGKERELVAAISSGGRTYYADSVKGRFTISRDNAKNTVYLQMNSLKPEDTAVYYCNAVKRVPSLGPYDYWGQGTQVTVSS	high polyreactivity
QVQLVESGGGLVQAGGSLRVSCAASGSTFILNAMGWYRQAPGKERELVATISSSDTSTYYADSVKGRFTISRDHAKNTVYLQMNSMKPEDTAVYYCNADYYTTAYLQRVYHYGVEYDYWGQVTQVTVSS	low polyreactivity
QVQLVESGGGLVQAGGSLRLSCAASGFIFKIYAMGWYRQAPGKERELVAAISSGDNTNYADSVKGRFTISRDNAKNTVYLQMNSLKPEDTAVYYCAARAYRWRSFSTMYYWGQGTQVTVSS	high polyreactivity
QVLLQESGGGLVQAGGSLRLSCAASGTISTDIRMGWYRLAPGKEREFVASIDGCSTTYYADSVKGRFTISRDNAKNTVYLQMNSLKPEDTAMYYCSAREATEFYLFYWGQGTQVTVSS	low polyreactivity
QVQLVESGGGLVQAGGSLRLSCAASGRILHGYAMGWYRQAPGKERELVAAITSSGGRTYYADSVKGRFPISRDNAKNTVYLQMISLKPEDTAVYYCAADRPAYRTGDSKYDYWGQGTQVTVSS	low polyreactivity
QVQLVESGGGLVQAGGSLRLSCAASGSIFPRYAMGWYRQAPGKERELVAAITGSGSSTYYADSVKGRFTISRDNAKNTVYLQMNSLKPEDTAVYYCAARKARPPCPHPFDYYWGEGTQVTVSS	low polyreactivity
